How the values were obtained:
[1] = biological target: kinase-dead CaMKII (K42R and D135N double mutant) with C-terminal AviTag (human) (UniProt Q9UQM7); experiment: mass photometry; 400 nM CaMKII, basal conditions; 25 mM Tris pH 8, 150 mM KCl, 1 mM TCEP; Refeyn One MP
[2] = biological target: kinase-dead CaMKII (K42R and D135N double mutant) with C-terminal AviTag (human) (UniProt Q9UQM7); experiment: SEC; Superose 6 10/300 increase column; SEC buffer 25 mM Tris pH 8, 250 mM NaCl, 1% glycerol, 1 mM TCEP; assembly of subunits into the holoenzyme
[3] = biological target: kinase-dead CaMKII (K42R and D135N double mutant) with C-terminal AviTag (human) (UniProt Q9UQM7); experiment: mass photometry; 400 nM CaMKII, activating conditions (8 µM CaMKII incubated with 1.5 µM Ca2+:CaM, 1 mM ATP, 2 mM MgCl2 for 5 min at room temperature, then diluted); 25 mM Tris pH 8, 150 mM KCl, 1 mM TCEP
CaMKII^F394BzF (human) = CaMKII^F394BzF (human) (UniProt Q9UQM7); experiment: SEC; Superose 6 10/300 increase column; SEC buffer 25 mM Tris pH 8, 250 mM NaCl, 1% glycerol, 1 mM TCEP; assembly of subunits into the holoenzyme

stoichiometry N [1] | stoichiometry N [2] | percent in the tetramer peak [3] | stoichiometry N [3] | stoichiometry N (CaMKII^F394BzF (human)) | Substance
10 | 12 | 12% | 4 | – | kinase-dead CaMKII (K42R and D135N double mutant) with C-terminal AviTag (from UniProt Q9UQM7 6-478) (enzyme)
– | – | – | – | 12 | CaMKII^F394BzF (from UniProt Q9UQM7 6-478) (enzyme)

From paper PMC10468207
